Measurements reported in patent publication US9364516B2, “Treatment of fibrosis-related disorders using fibronectin binding proteins and polypeptides” (priority 2010, dated 2016).

Columns and labels:
Rat aortic SMCs = experiment: qRT-PCR of fibronectin and collagen I in SMC; format: cell-based; conditions: 500 nM, 24 h; PBS control set equal to 1; average of duplicates ± range
Protocol: (§1) mRNA was isolated from RASMs 24 hours after incubation with 500 nM pUR4 or III-11C control peptides using RNAzol as per the manufacturer's instructions (Invitrogen). cDNA was prepared using a Superscript First Strand cDNA kit as per the manufacturer's instructions (Invitrogen). Mouse carotid arteries were harvested and frozen in liquid nitrogen. RNA was isolated using Trizol and purified using a QIAgen RNeasy Micro Kit. RNA integrity was examined with an Agilent 2100 Bioanalyser using RNA6000 NanoAssay (Agilent Technology). Whole transcriptome amplification was performed using Qiagen's QuantiTect Whole Transcriptome Amplification Kit. Quantitative RT-PCR analyses were performed using ABI Prism 7900HT sequence detection system (Applied Biosystems). The qRT-PCR primers for 3 mouse genes were obtained from ABI: GADPH (4352932E), fibronectin (Mm01256744_m1), and collagen Ia1 (Mm00801666_g1). TaqMan probe chemistry was used according to the manufacturer's instructions. qRT-PCR reactions were run in triplicate for each sample. The data was normalized to the levels of GAPDH in each sample, and the results were averaged.

fibronectin = fibronectin (Homo sapiens, UniProt P02751); conditions: cited from earlier work
Sequence of fibronectin (P02751 32-2477): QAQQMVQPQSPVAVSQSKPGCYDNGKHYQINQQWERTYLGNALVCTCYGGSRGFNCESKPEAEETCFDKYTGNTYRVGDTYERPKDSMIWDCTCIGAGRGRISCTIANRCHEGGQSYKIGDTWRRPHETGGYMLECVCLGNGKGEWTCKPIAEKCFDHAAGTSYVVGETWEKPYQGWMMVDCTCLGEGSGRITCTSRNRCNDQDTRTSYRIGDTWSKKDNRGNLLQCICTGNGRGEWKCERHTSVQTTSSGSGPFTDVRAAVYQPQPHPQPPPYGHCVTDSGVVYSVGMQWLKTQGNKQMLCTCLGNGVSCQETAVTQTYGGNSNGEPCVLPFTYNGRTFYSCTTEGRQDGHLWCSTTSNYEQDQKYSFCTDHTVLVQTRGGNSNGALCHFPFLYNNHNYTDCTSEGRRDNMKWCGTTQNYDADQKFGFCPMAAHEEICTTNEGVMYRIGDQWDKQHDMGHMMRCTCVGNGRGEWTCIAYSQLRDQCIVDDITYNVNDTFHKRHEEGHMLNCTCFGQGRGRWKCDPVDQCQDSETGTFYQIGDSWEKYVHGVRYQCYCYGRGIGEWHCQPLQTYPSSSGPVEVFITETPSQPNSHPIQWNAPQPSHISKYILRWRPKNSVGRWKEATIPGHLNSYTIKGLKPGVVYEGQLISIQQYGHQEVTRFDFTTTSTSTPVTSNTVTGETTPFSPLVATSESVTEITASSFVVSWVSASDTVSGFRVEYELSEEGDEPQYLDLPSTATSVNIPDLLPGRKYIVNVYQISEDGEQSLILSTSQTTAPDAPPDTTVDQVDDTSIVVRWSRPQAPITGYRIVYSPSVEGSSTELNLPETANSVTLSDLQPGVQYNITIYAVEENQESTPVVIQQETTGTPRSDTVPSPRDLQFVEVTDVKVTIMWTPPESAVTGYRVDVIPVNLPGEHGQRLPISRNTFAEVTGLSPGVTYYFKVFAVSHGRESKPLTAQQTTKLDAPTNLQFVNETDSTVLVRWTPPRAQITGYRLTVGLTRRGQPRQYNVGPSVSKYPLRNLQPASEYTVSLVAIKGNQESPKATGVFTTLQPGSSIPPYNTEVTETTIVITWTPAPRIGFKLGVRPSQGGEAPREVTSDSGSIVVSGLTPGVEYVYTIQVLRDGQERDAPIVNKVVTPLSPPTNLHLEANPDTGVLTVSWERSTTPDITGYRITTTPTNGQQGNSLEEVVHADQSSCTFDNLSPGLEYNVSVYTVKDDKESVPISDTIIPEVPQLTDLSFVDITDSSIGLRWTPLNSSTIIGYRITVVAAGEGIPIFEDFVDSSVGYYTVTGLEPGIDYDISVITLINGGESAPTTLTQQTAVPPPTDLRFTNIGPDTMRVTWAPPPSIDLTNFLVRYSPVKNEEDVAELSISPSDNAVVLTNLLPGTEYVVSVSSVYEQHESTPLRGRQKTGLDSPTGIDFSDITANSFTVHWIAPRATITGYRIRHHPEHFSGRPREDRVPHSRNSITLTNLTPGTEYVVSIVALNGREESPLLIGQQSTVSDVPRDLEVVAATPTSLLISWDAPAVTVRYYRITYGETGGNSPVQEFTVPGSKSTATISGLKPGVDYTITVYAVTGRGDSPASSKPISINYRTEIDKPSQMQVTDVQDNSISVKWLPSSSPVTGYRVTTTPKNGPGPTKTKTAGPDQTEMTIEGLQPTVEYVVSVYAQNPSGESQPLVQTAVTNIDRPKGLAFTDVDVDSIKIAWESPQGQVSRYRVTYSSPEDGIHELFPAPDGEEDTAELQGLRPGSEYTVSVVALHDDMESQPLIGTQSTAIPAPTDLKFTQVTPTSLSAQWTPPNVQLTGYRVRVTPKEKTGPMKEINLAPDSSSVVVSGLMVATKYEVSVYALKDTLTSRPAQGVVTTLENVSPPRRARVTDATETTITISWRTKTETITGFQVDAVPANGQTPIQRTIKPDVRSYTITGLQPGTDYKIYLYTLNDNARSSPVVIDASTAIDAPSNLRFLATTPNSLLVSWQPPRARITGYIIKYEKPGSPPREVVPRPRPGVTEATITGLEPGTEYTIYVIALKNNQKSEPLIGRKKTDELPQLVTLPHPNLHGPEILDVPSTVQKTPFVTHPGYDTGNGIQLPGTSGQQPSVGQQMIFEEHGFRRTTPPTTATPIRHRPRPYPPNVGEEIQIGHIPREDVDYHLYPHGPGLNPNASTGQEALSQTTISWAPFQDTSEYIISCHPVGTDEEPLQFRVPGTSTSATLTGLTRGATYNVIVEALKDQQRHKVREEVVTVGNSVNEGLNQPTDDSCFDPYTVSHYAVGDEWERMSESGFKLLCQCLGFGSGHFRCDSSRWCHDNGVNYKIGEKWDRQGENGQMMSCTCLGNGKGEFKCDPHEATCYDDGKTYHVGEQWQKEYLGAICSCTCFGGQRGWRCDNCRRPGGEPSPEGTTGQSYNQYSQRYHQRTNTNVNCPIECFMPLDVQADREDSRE

[1] = system: fibronectin matrix assembly; experiment: Inhibition of fibronectin matrix assembly in cell culture; format: cell-based; conditions: cell culture experiments
Mouse carotid arteries = experiment: qRT-PCR of fibronectin and collagen I in carotid arteries after ligation; format: in vivo; conditions: III-11C set equal to 1, mean ± s.e.m., 3 arteries
Protocol: as §1
Blood flow in the left carotid artery of 10-week-old FVB/NJ (FVB) mice was reduced by ligating the external and internal carotid arterial branches as described (Korshunov et al., “Flow-Induced Vascular Remodeling in the Mouse: A Model for Carotid Intima-Media Thickening,” Arterioscler. Thromb. Vasc. Biol. 23:2185-2191 (2003), which is hereby incorporated by reference in its entirety). Mice were anesthetized with an intraperitoneal injection of ketamine (80 mg/kg) and xylazine (5 mg/kg) as described in the above-cited referenced. The left common carotid artery was dissected free of the surrounding connective tissue and 50 μL of F-127 pluronic gel (BASF) containing 20 μmol/L pUR4 or III-11C was applied around the carotid artery. Animals were separated into 5 groups containing 5 to 10 animals each: (1) sham-operated, in which the branches of the left carotid artery were exposed and dissected out, but not ligated; (2) ligation; (3) ligation with pluronic gel; (4) ligation with pluronic gel containing III-11C; (5) ligation with pluronic gel containing pUR4.

B1: pUR4: 49-mer peptide derived from the bacterial F1 adhesin, His tagged, SEQ ID NO:1; class I fibronectin polymerization inhibitor (peptide)
chain: MRGSHHHHHHGSKDQSPLAGESGETEYITEVYGNQQNPVDIDKKLPNETGFSGNMVETEDTKLN
modifications: His tag; Bacterial adhesin derived peptide pUR4
- Col Ia1 mRNA, relative level (Rat aortic SMCs): 1.42 ± 0.06
- Fibronectin mRNA, relative level (Rat aortic SMCs): 1.43 ± 0.02
- binding to fibronectin (fibronectin): binds
- concentration effective at inhibiting fibronectin matrix assembly [1]: 50 to 100 nM
- Col Ia1 mRNA, relative level, Day 4 (Mouse carotid arteries; 4 days post surgery): 0.60 ± 0.30
- Fibronectin mRNA, relative level, Day 4 (Mouse carotid arteries; 4 days post surgery): 0.70 ± 0.23
- Col Ia1 mRNA, relative level, Day 7 (Mouse carotid arteries; 7 days post surgery): 0.58 ± 0.36
- Fibronectin mRNA, relative level, Day 7 (Mouse carotid arteries; 7 days post surgery): 0.41 ± 0.23
